# The nanobody polyreactivity screen of Harvey et al. (2022)
# Test: yeast display, Sf9 membrane polyspecificity reagent, FACS + sequencing; frameworks hold sequencing errors
# Outline: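 Using colony PCR, genes from sorted yeast display clones were amplified, then sequenced on MiSeq at 2 × 250 and filtered by CDR length. The clones had been stained with 10% biotinylated, detergent-solubilized Sf9 membrane reagent for 1 hour at 4 °C and sorted by FACS into low and high (top ~1%) gates on anti-HA and streptavidin fluorescence. Polyreactivity labels come from the gate of origin.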
row,Sequence,polyreactivity (PSR sort gate)
1,QVQLVESGGGLVQAGGSLRLSCAASGFIFWTNTMGWYRQAPGKERELVAAISRSGGSTYYADSVKGRFTISRDNAKNTVYLQMNSLKPEDTAVYYCAKGYRGYSYGYWGQGTQVTVSS,high polyreactivity
2,QVQLVESGGGLVQAGGSLRLSCAASGFIFWVYALGWYRQAPGKERELVAAITSGGGSTYYADSVKGRFTISRDNAKNSVYLQMNSLKPEDTAVYYCNSVSWEGYDFDYWGQGTQVTVSS,high polyreactivity
3,QVQLVESGGGLVQAGGSLRLSCAASGFIFWWYAMGWYRQAPGKERELVAGITGSGGTTYYADSVKGRFTISRDNAKNTVYLQMNSLKPEDTAVYYCAARSRSRPKYDYWGQGTQVTVSS,high polyreactivity
4,QVQLVESGGGLVQAGGSLRLSCAASGFIFWWYAMGWYRQAPGKERELVASISWSGGSTYYADSVKGRFTISRDNAKNTVYLQMNSLKPEDTAVYYCAASRARTIPGPHTNFNYWGQGTQVTVSS,high polyreactivity
5,QVQLVESGGGLVQAGGSLRLSCAASGFIFWWYAMGWYRQAPGKERELVATITASVGSTNYADSVKGRFTISRDTAKNTVYLQMNSLKPEDTAVYYCATDIIGAIRDWDHTRMDYWGQGTQVTVSS,low polyreactivity
6,QVQLVESGGGLVQAGGSLRLSCAASGFIFWWYGMGWYRQSPGKEREFVAAITQSGSTYYADSVKGRFTISRDNAKNTVYLQMNSLKPEDTAVYYCAAVVGRRLYPRYDYWGQGTQVTVSS,high polyreactivity
7,QVQLVESGGGLVQAGGSLRLSCAASGFIFWYYAMGWSRQAPGKERELVAAISGSGGRTYYADSVKGRFTISRDNAKNTVYLQLNSLKPEDTAVYYCNARRAAYYHRARELDYWGEGTQVTVSS,high polyreactivity
8,QVQLVESGGGLVQAGGSLRLSCAASGFIFWYYAMGWYRQAPGKERELVAAITTSDGSTYYADSVKGRFTISRDNAKNTVYLQMNSLKPEDTAGYYCAADSYYVSYGYYYCGQGTQVTVSS,low polyreactivity
9,QVQLVESGGGLVQAGGSLRLSCAASGFIFYAYAMGWDRQAPGKERELVAAISRGGGSTYYADSVKGRFTISRDNAKNTVYLQMNSLKPEDTAVYYCAADFYYDRDVDFWGQGTQVTVSS,high polyreactivity
10,QVQLVESGGGLVQAGGSLRLSCAASGFIFYDYAMGWYRQAPGKERELVAAISSGGSTNYADSVKGRFTISRDNAKNTVYLQMNSLKPEDTAVYYCNVDYGVHVPPRDYWGQGTQVTVSS,low polyreactivity
11,QVQLVESGGGLVQAGGSLRLSCAASGFIFYDYAMGWYRQAPGKERELVASISWSSGSTYYADSVKGRFTISRDNAKNTVYLQMNSLKPEDTAVYYWAADGYPLQLYNYWGLGTQVTVSS,low polyreactivity
12,QVQLVESGGGLVQAGGSLRLSCAASGFIFYDYAMGWYRQGPGKERELGAAISSTAFGTYYADSVKGRFTISRDKAKNTVYLQMNILKPEDTAVYYCAAAVSPHSEGFGEYNDWGQGTQVTVSS,low polyreactivity
13,QVQLVESGGGLVQAGGSLRLSCAASGFIFYDYDMGCYRQAPGKERELVAAITYSGGSTYYADSVKGRFTISRDNAKNTVYLQMNSLKPEDTAVYYCAAVKSRYAEAVDYYYWGQGTQVTVSS,low polyreactivity
14,QVQLVESGGGLVQAGGSLRLSCAASGFIFYDYDMGWYRQAPGKERELVAAISDGGSTNYADSVKGRFTISRDNAKNTVYLQMNSLKPEDTAVYYCAKDGFVYYDYFQYIEYDYWGQGTQVTVSS,low polyreactivity
15,QVQLVESGGGLVQAGGSLRLSCAASGFIFYFNAMGWYRQAPGKERELVAAISASGGRTYYADSVKGRFTISRDNAKNTVYLQMNSLIPEDTAVYYCAADIRGYDYWGQGTQVTVSS,high polyreactivity
16,QVQLVESGGGLVQAGGSLRLSCAASGFIFYGYTMGWYRQAPGKERELVARISRRGGSTYYADSVKGRFTISRDNAKNTVYLQMNSLKPEDTAVYYCAAELRRLFYAYGYWGQGTQVTVSS,low polyreactivity
17,QVQLVESGGGLVQAGGSLRLSCAASGFIFYKNAMGWYRQAPGKERELVAAISSRGGSTSYADSVKGLFTISRDNAKNTVYLQMNSLKQEDTAVYYCAAYPDYSYFYWGQGTQVTVSS,high polyreactivity
18,QVQLVESGGGLVQAGGSLRLSCAASGFIFYKYAMGWYRQAPGKERELVAAITSSAGSTYYADSVKGRFTISRDNAKNTVYLQMNSLKPEDTAVYYCAADFHVDYVYWGQGTQVTVSS,high polyreactivity
19,QVQLVESGGGLVQAGGSLRLSCAASGFIFYLNAMGWYRQAPGKERELVAAISGRGGRTYYADSVKGRFTISRDNAKNTVYLQMNSLKPEDTAVYYCAAQYVPSRYGYWGQGTQVTVSS,high polyreactivity
20,QVQLVESGGGLVQAGGSLRLSCAASGFIFYLYTMGWYRQAPGKERELVAAIDYSGASTNYADSVKGRFTISRDNAKNTVYVQRNSQKPEDTAVYYCAVNPEVLYHSWTLDYWGQGTQVTVSS,low polyreactivity
21,QVQLVESGGGLVQAGGSLRLSCAASGFIFYNYAMGLYRQAPGKERELVAAISASGGRTYYADSVKGRFTISRDNAKNTVYLQMNRLKPEDTAVYYCNARVNYKGYDYWGQGTQVTVSS,high polyreactivity
22,QVQLVESGGGLVQAGGSLRLSCAASGFIFYNYAMGWYRQAPGKERELVAAITSRGGSTYYADSVKGRFTISRDNAKNTVYLQMNSLKPEDTAVYYCAAVKVGDARFVRNDYWGQGTQVTVSS,high polyreactivity

row,Sequence,polyreactivity (PSR sort gate)
1,QVQLVESGGGLVQAGGSLRLSCAASGFIFYPNAMGWYRQAPGKERELVAVITGGGSTYYADSVKGLFTISRDNAKNTVYLQMNSLKPEDPAVYYCAARTLRAGYRASGVRRDYWRQGTQVTVSS,high polyreactivity
2,QVQLVESGGGLVQAGGSLRLSCAASGFIFYRNAMGWYRQAPGKERELVAAISQRGGRTYADSVKGRFTISRDNAKNTVYLQMNSLIPEDTAVYYCAADYLDSTYGYVYGWDDYWGQGTQVTVSS,low polyreactivity
3,QVQLVESGGGLVQAGGSLRLSCAASGFIFYRNTMGWSRQAPGKEREFVAAIRWRGGSTYYADSVKGRFTISRDNAKNTVYLQMNSLKPEDTAVYYCAADTRPGYSGFEYWGQGTQVTVSS,high polyreactivity
4,QVQLVESGGGLVQAGGSLRLSCAASGFIFYRNTMGWYRPAPGKEREFVAAIRWRGGSTYYADSVKGRFTISRDNAKNTVYVQMNSLKPEDTAGYYCAADTRPGYSGFEYWGQGTQVTVSS,high polyreactivity
5,QVQLVESGGGLVQAGGSLRLSCAASGFIFYRNTMGWYRQAPGKEREFVAAIRWRGGSTYYADSVKGRFTISRDNAKNTVYLQMNSLKPEDTAVYYCAADTRPGYSGFEYWGQGTQVTVSS,high polyreactivity
6,QVQLVESGGGLVQAGGSLRLSCAASGFIFYRYAMGRYRQAPGKERELVAAISWGGGSTTYYADSVKGRFTISRDNAKNTVYLQMNSLKPEDTAVYYCAAYIGKGYGSEYYYWGQGTQVTVSS,low polyreactivity
7,QVQLVESGGGLVQAGGSLRLSCAASGFIFYRYAMGWYRQAPGKEREFVAVISKSGGRTYYADSVKGRFTISRDNAKNTVYLQMNSLKPEDTAVYYCNRVYRPSRYDYWGQGTQVTVSS,high polyreactivity
8,QVQLVESGGGLVQAGGSLRLSCAASGFIFYRYAMGWYRQAPGKERELVAAISYSGGSTYYADSVKGRFTISRDNAKNTVYLQMNSLKPEDTAVYYCAAGSKYRYDYWGQGTQVTVSS,high polyreactivity
9,QVQLVESGGGLVQAGGSLRLSCAASGFIFYRYAMGWYRQAPGKERELVAAITGSGARTYYADSVKGRFTISRDNAKNTVYLQMNSLKPEDTAVYYCNARGYRGYDYWGQGTQVTVSS,high polyreactivity
10,QVQLVESGGGLVQAGGSLRLSCAASGFIFYRYAMGWYRQEPGKERELVASINYSGGRTYYADSVKGRFTISRDNAKNTVYLQMNSLKPEDTAVYYCNARYKSTYYYWGQGTQVTVSS,high polyreactivity
11,QVQLVESGGGLVQAGGSLRLSCAASGFIFYRYARGWYRQAPGKEREFVAAITRSAGGTYYADSVKGRFTISRDNAKNTVYLQMNSLKPEDTAVYYCAAVYRSGSRYYLGWYNYWGQGTQVTVSS,high polyreactivity
12,QVQLVESGGGLVQAGGSLRLSCAASGFIFYRYSMGWYRQAPGIERELVAAIRSSGGSTYYADSVKGRFSISRDNAKNTVYRHMNSLKPQDTAVYYCAKCFSSVLWNGIWPYDYWGQGTQVTVSS,low polyreactivity
13,QVQLVESGGGLVQAGGSLRLSCAASGFIFYSNAMGWYRQAPGKERELVAAISRGGGSTYYADSVKGRFTISRDNAKNTVYLQMNSLKPEDTAVYYCAKRRLSPQDDYWGQGTQVTVSS,high polyreactivity
14,QVQLVESGGGLVQAGGSLRLSCAASGFIFYSNAMGWYRQAPGKERELVAAISWDAGSTYYADSVKGRFTISRDNPKNTVYLQMNSLKPEDTAVYYCATDRIVGRYIYNYWGQGTQVTVSS,high polyreactivity
15,QVQLVESGGGLVQAGGSLRLSCAASGFIFYSYAMGWYRQAPGKERELVAAITSSGGNTYYADSVKGRFTISRDNAKNTGYLQMNSLKPEDTAVYYCNRDRKRGYPYQPYDYWGQGTQVTVSS,high polyreactivity
16,QVQLVESGGGLVQAGGSLRLSCAASGFIFYSYAMGWYRQAPGKERELVAAITYSGGSTYYADSVKGRFTISRDNAKNTVYLQMNSLKPEDTAVYYCADDYYHPGYIYEYWGQGTQVTVSS,low polyreactivity
17,QVQLVESGGGLVQAGGSLRLSCAASGFIFYSYAMRWYRQDPGQERELVAAISTSGGSSYYADSVKGRFTMSRDNAKNTVYLQMNSLKPEDTAVYYCATLSAFYPFAYDYWGQGTQVTVSS,high polyreactivity
18,QVQLVESGGGLVQAGGSLRLSCAASGFIFYSYVMGWSRQAPGKERELVAAISRSGGSTYYADSVKGRFTISRDNAKNTVYLQMNSLKPEDTAVYYCAVDGISGTSYGEGDEYWGQGTQVTVSS,high polyreactivity
19,QVQLVESGGGLVQAGGSLRLSCAASGFIFYTYAMGWYRQAPGKERELVAAISWRGGRTYYADSVKGRFTISRDNAKNTVYLQMNSLKPEDTAVYYCNAVTRSGEYDYWGQGTQVTVSS,high polyreactivity
20,QVQLVESGGGLVQAGGSLRLSCAASGFIFYTYVMGWYRQAPGKERELVAAISGTGGRTYYADSVKGRFTISRDNAKNTVYLQMNSLKPEDTAVYYCAAVSRYATGGGYWGQGTQVTVSS,high polyreactivity
21,QVQLVESGGGLVQAGGSLRLSCAASGFIFYWYVMGWYRQAPGKERELVAGISKNGTNTYYADSVKGRFTISRDNAKNTVYLQMNSLKPEDTAVYYCAARGYIRSRHYLEGYWGQGTQVTVSS,high polyreactivity
